# Measured values reported in PMC10565809 (2022).
# T1: GFRα1 (Homo sapiens, UniProt P56159)
# T1 chain: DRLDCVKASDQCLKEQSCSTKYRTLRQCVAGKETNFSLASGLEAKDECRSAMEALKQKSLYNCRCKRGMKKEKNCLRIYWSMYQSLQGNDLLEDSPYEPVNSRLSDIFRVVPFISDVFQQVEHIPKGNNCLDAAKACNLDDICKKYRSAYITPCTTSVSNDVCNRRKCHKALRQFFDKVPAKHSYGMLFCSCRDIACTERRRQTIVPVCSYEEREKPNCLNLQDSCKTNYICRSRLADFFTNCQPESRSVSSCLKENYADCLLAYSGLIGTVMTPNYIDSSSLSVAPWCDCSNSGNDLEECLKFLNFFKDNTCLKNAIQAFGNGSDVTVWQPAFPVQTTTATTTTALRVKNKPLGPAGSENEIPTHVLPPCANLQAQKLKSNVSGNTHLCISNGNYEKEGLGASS
# Columns and labels:
# [1] = molecular target: GFRα1 soluble form (Homo sapiens) (UniProt P56159); assay: SPR; conditions: cited from earlier work
# GFRα1 = molecular target: T1, GFRα1; assay: MST
Kd (GFRα1),Molecule,Kd [1]
,GDNF (from UniProt P39905),0.63 nM
260 nM,GDNF (protein) KRSPDKQMAVLPRRERNRQAAAANPENSRGKGRRGQRGKNRGCVLTAIHLNVTDLGLGYETKEELIFRYCSGSCDAAETTYDKILKNLSRNRRLVSDKVGQACCRPIAFDDDLSFLDDNLVYHILRKHSAKRCGCI,
